Laboratory results: publication PMC8754640 (Nucleic Acids Research, 2021)
Values belong to the binder of their own block, whether it stands above or below them.

B1: GST-CTD (residues 372–636) (domain or fragment, UniProt P11940 372-636, looked up)
chain: EERQAHLTNQYMQRMASVRAVPNPVINPYQPAPPSGYFMAAIPQTQNRAAYYPPSQIAQLRPSPRWTAQGARPHPFQNMPGAIRPAAPRPPFSTMRPASSQVPRVMSTQRVANTSTQTMGPRPAAAAAAATPAVRTVPQYKYAAGVRNPQQHLNAQPQVTMQQPAVHVQGQEPLTASMLASAPPQEQKQMLGERLFPLIQAMHPTLAGKITGMLLEIDNSELLHMLESPESLRSKVDEAVAVLQAHQAKEAAQKAVNSATGVPTV
B2: Flag-C (372–636) (domain or fragment, UniProt P11940 372-636, looked up)
chain: EERQAHLTNQYMQRMASVRAVPNPVINPYQPAPPSGYFMAAIPQTQNRAAYYPPSQIAQLRPSPRWTAQGARPHPFQNMPGAIRPAAPRPPFSTMRPASSQVPRVMSTQRVANTSTQTMGPRPAAAAAAATPAVRTVPQYKYAAGVRNPQQHLNAQPQVTMQQPAVHVQGQEPLTASMLASAPPQEQKQMLGERLFPLIQAMHPTLAGKITGMLLEIDNSELLHMLESPESLRSKVDEAVAVLQAHQAKEAAQKAVNSATGVPTV
B4: Flag-1–2–3–4 (2–371) (domain or fragment, UniProt P11940 2-371, looked up)
chain: NPSAPSYPMASLYVGDLHPDVTEAMLYEKFSPAGPILSIRVCRDMITRRSLGYAYVNFQQPADAERALDTMNFDVIKGKPVRIMWSQRDPSLRKSGVGNIFIKNLDKSIDNKALYDTFSAFGNILSCKVVCDENGSKGYGFVHFETQEAAERAIEKMNGMLLNDRKVFVGRFKSRKEREAELGARAKEFTNVYIKNFGEDMDDERLKDLFGKFGPALSVKVMTDESGKSKGFGFVSFERHEDAQKAVDEMNGKELNGKQIYVGRAQKKVERQTELKRKFEQMKQDRITRYQGVNLYVKNLDDGIDDERLRKEFSPFGTITSAKVMMEGGRSKGFGFVCFSSPEEATKAVTEMNGRIVATKPLYVALAQRK
B6: GST-RRM2-3 (residues 97–299) (domain or fragment, UniProt P11940 97-299, looked up)
chain: GVGNIFIKNLDKSIDNKALYDTFSAFGNILSCKVVCDENGSKGYGFVHFETQEAAERAIEKMNGMLLNDRKVFVGRFKSRKEREAELGARAKEFTNVYIKNFGEDMDDERLKDLFGKFGPALSVKVMTDESGKSKGFGFVSFERHEDAQKAVDEMNGKELNGKQIYVGRAQKKVERQTELKRKFEQMKQDRITRYQGVNLYVK
B7: Flag-2–3 (97–299) (domain or fragment, UniProt P11940 97-299, looked up)
chain: GVGNIFIKNLDKSIDNKALYDTFSAFGNILSCKVVCDENGSKGYGFVHFETQEAAERAIEKMNGMLLNDRKVFVGRFKSRKEREAELGARAKEFTNVYIKNFGEDMDDERLKDLFGKFGPALSVKVMTDESGKSKGFGFVSFERHEDAQKAVDEMNGKELNGKQIYVGRAQKKVERQTELKRKFEQMKQDRITRYQGVNLYVK

Experiments:
[1] = biological target: His-PABP WT-Flag (UniProt P11940 2-636); assay: co-IP
[2] = biological target: B2; assay: co-IP
[3] = biological target: GST-PABP WT (UniProt P11940 1-636); assay: co-IP
[4] = biological target: B6; assay: co-IP
[5] = biological target: the molecule itself; assay: SEC
[6] = biological target: B7; assay: co-IP
[7] = biological target: B4; assay: co-IP
[8] = biological target: B6; assay: pull-down
[9] = biological target: B1; assay: co-IP

Binder: B1
binding result [1]: binds
binding result [2]: binds

Binder: B2
binding result [3]: binds

binding result [4]: binds
B3: Flag-linker2-RRM3 (176–299) (domain or fragment, UniProt P11940 176-299, looked up)
chain: RKEREAELGARAKEFTNVYIKNFGEDMDDERLKDLFGKFGPALSVKVMTDESGKSKGFGFVSFERHEDAQKAVDEMNGKELNGKQIYVGRAQKKVERQTELKRKFEQMKQDRITRYQGVNLYVK

Binder: B4
binding result [3]: binds

B5: His-PABP 4EA mutant-Flag (natural protein, UniProt P11940 2-636, looked up)
chain: NPSAPSYPMASLYVGDLHPDVTEAMLYEKFSPAGPILSIRVCRDMITRRSLGYAYVNFQQPADAERALDTMNFDVIKGKPVRIMWSQRDPSLRKSGVGNIFIKNLDKSIDNKALYDTFSAFGNILSCKVVCDENGSKGYGFVHFETQEAAERAIEKMNGMLLNDRKVFVGRFKSRKARAAALGARAKAFTNVYIKNFGEDMDDERLKDLFGKFGPALSVKVMTDESGKSKGFGFVSFERHEDAQKAVDEMNGKELNGKQIYVGRAQKKVERQTELKRKFEQMKQDRITRYQGVNLYVKNLDDGIDDERLRKEFSPFGTITSAKVMMEGGRSKGFGFVCFSSPEEATKAVTEMNGRIVATKPLYVALAQRKEERQAHLTNQYMQRMASVRAVPNPVINPYQPAPPSGYFMAAIPQTQNRAAYYPPSQIAQLRPSPRWTAQGARPHPFQNMPGAIRPAAPRPPFSTMRPASSQVPRVMSTQRVANTSTQTMGPRPAAAAAAATPAVRTVPQYKYAAGVRNPQQHLNAQPQVTMQQPAVHVQGQEPLTASMLASAPPQEQKQMLGERLFPLIQAMHPTLAGKITGMLLEIDNSELLHMLESPESLRSKVDEAVAVLQAHQAKEAAQKAVNSATGVPTV
stoichiometry N [5]: 2

Binder: B6
binding result [6]: binds
binding result [7]: binds

Binder: B7
binding result [8]: binds
binding result [3]: binds

binding result [3]: binds
B8: Flag-1–2–3 (2–299) (domain or fragment, UniProt P11940 2-299, looked up)
chain: NPSAPSYPMASLYVGDLHPDVTEAMLYEKFSPAGPILSIRVCRDMITRRSLGYAYVNFQQPADAERALDTMNFDVIKGKPVRIMWSQRDPSLRKSGVGNIFIKNLDKSIDNKALYDTFSAFGNILSCKVVCDENGSKGYGFVHFETQEAAERAIEKMNGMLLNDRKVFVGRFKSRKEREAELGARAKEFTNVYIKNFGEDMDDERLKDLFGKFGPALSVKVMTDESGKSKGFGFVSFERHEDAQKAVDEMNGKELNGKQIYVGRAQKKVERQTELKRKFEQMKQDRITRYQGVNLYVK

binding result [9]: binds
B9: Flag-Linker (372–543) (domain or fragment, UniProt P11940 372-543, looked up)
chain: EERQAHLTNQYMQRMASVRAVPNPVINPYQPAPPSGYFMAAIPQTQNRAAYYPPSQIAQLRPSPRWTAQGARPHPFQNMPGAIRPAAPRPPFSTMRPASSQVPRVMSTQRVANTSTQTMGPRPAAAAAAATPAVRTVPQYKYAAGVRNPQQHLNAQPQVTMQQPAVHVQGQE
